In patent publication US20240132626A1:

Biological target: Soluble human CD137 ECD protein (human) (UniProt Q07011)
Test: SPR, captured via anti-human kappa, soluble ECD injected

Chain of Soluble human CD137 ECD protein (human) (Q07011 24-186): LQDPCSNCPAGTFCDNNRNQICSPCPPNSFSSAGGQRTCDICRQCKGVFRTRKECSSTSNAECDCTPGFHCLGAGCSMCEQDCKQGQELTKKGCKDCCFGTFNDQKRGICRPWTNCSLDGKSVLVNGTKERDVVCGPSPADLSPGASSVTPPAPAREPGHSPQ
Chain of Urelumab (antibody) (VH): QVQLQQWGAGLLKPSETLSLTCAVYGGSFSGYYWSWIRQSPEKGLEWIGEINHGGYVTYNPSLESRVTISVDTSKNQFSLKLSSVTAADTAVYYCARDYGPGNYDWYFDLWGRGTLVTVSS
Chain of Urelumab (antibody) (VL): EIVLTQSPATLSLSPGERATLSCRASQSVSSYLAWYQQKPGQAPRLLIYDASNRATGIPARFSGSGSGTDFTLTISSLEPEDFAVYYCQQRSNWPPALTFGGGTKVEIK

Urelumab (antibody)
Kd: 11 nM | koff: 0.0023 s⁻¹ | kon: 210000 M⁻¹ s⁻¹
